Data on 2 substances can be found in patent US5494895A, “Scorpion peptide margatoxin with immunosuppressant activity” (Merck & Co., Inc., priority 1993, dated 1996).

For one test, the target named is T1, Kv 1.6 (Rattus norvegicus, UniProt P17659).
T1 construct: expressed in transfected cells; host or cells: Xenopus oocytes injected with RNA transcribed in vitro from the cDNA clone
The following applies: rat clone; cited from earlier work.

Another test addresses T2, Kv 1.3 (Rattus norvegicus, UniProt P15384).
T2 construct: from tissue; host or cells: rat brain synaptic plasma membrane vesicles
Briefly: [125I]ChTX binding to rat brain synaptic plasma membrane vesicles. As for the experimental part:
(§1) The potency of MgTX as an inhibitor of [^125 I]ChTX binding to Kv 1.3 was evaluated. The binding of [^125 I]ChTX to either rat brain synaptic plasma membrane vesicles (Kv 1.3 channel; Vazquez et al., J. Biol. Chem. 265, 15564, 1990) or bovine aortic smooth muscle sarcolemmal membranes (Maxi-K channel; Vazquez et al., J. Biol. Chem. 264, 20402, 1989) was determined as described. Briefly, membrane vesicles were incubated with [^125 I]ChTX in the presence or absence of other added agents, until equilibrium was achieved. Separation of bound from free ligand was accomplished by filtration through GF/C glass fiber filters (WHATMAN) that had been presoaked in 0.5% polyethyleneimine. Nonspecific binding was determined in the presence of 10 nM unlabeled ChTX. Data from saturation experiments were analyzed in a Scatchard representation to determine Kd and Bmax values. Triplicate samples were obtained for each experimental point and the data were averaged. The standard deviation of the mean was typically less than 2%. […] As an indication of selectivity, MgTX had no effect on [^125 I]ChTX binding to the Maxi-K channel in smooth muscle membranes at concentrations up to 10 nM.

The target in the next test is T3, Maxi-K channel (Bos taurus, UniProt Q28204).
T3 construct: from tissue; host or cells: bovine aortic smooth muscle sarcolemmal membranes
Briefly: [125I]ChTX binding to bovine aortic smooth muscle sarcolemmal membranes. As for the experimental part:
as §1

Test [1] has as its target T4, lymphocyte Kv 1.3 current (Homo sapiens, UniProt P22001).
T4 construct: endogenous in cells; host or cells: purified human peripheral blood T lymphocytes
Put plainly: Whole cell patch clamp of human peripheral T-lymphocytes. The test is classed as cell-based. The following applies: electrophysiology, Example 8. As for the experimental part: Ionic currents were recorded from human peripheral T-lymphocytes using the whole cell patch clamp technique described in Cahalan, M. and Neher, E., Meth. Enzymol. 207, 3, 1992. Purified human T cells were obtained as described in Leonard et al., Proc. Natl. Acad. Sci. U.S.A., 89, 10094, 1992, and recordings were carried out in a bath solution consisting of ^125 mM NaCl, 2.5 mM KCl, 1.0 mM CaCl2, 2.0 mM MgCl2, 10 mM HEPES (potassium salt), 10 mM glucose, 5 mM Na-pyruvate, and 0.05% BSA. The pH was adjusted to 7.2, and experiments were performed at room temperature (19°-22° C.). The intracellular (pipette) solution contained 140 mM K-glutamate, 1 mM MgCl2, 10 mM HEPES (potassium salt), and 0.1 mM EGTA. The pH was adjusted to 7.2. Patch pipettes were fabricated from DAGAN (Minneapolis, Minn.) LG-16 glass and had resistances of 2 to 8M.OMEGA.. Currents were measured using a DAGAN model 3900 patch clamp. Delivery of command voltages, data acquisition, and post-acquisition analysis were aided by a microcomputer running the Pclamp program suite (AXON INSTRUMENTS, Foster City, Calif.).
Methods for oocyte isolation and micro-injection were previously described in Goldin, Meth. Cell Biol, 36, 487, 1991, and Swanson and Folander, Meth. Enzymol., 207, 310, 1992. Currents expressed in oocytes were measured using a DAGAN model CA-1 two-electrode voltage clamp. Delivery of command voltages, data acquisition and post-acquisition analysis were aided by a microcomputer running the Pclamp program suite. The oocyte bathing solution consisted of 96 mM NaCl, 2.5 mM KCl, 1 mM MgCl2, 1.8 mM CaCl2, 10 mM HEPES, and 0.05% BSA. The pH was 7.2. All recordings were obtained at room temperature (19°-22° C.). The intracellular microelectrodes were fabricated from DAGAN LE-16 glass in a two-stage pull to a final resistance of 0.6 to 2M.OMEGA. and filled with 3M KCl. For both lymphocyte and oocyte experiments, peptides were diluted into the extracellular solution from 20 μM aqueous stock containing 100 mM NaCl. The presence of 0.05% BSA in the bath solution inhibited non-specific loss of dilute peptide toxins in the perfusion tubing.
Both native and recombinant MgTX were tested for their ability to block voltage gated K^+ channels. […] There was insufficient native toxin to carry out selectivity studies, so those were conducted using the recombinant material exclusively. […] The apparent IC50 for inhibition of the lymphocyte Kv 1.3 current is between 20 to 100 pM. […] As reported previously, MgTX has no effect on three different ChTX-sensitive, Ca^2+ -activated K^+ channels of lymphocytes, even at 100 nM (Leonard et al., Proc. Natl. Acad. Sci. U.S.A. 89, 10094, 1992).
On the technique in general: In patch-clamp work, channel activity is measured electrically.

Ends that are not written are not given here.

T4 sequence (P22001 whole entry): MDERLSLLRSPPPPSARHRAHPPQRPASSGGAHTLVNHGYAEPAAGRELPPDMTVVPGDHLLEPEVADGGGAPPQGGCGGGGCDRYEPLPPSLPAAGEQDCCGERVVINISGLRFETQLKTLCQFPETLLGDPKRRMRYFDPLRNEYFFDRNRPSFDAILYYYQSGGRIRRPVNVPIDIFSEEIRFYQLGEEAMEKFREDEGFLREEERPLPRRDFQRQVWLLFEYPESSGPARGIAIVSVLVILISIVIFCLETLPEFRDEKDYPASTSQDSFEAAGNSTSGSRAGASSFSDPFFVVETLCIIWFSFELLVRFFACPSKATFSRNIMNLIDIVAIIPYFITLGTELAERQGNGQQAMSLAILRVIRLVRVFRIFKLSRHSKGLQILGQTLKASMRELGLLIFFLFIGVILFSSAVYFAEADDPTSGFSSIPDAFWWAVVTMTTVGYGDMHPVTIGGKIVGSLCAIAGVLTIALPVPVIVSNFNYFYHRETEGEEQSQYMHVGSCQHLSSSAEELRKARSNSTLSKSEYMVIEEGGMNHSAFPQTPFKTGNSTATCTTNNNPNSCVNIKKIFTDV
T1 sequence (P17659 whole entry): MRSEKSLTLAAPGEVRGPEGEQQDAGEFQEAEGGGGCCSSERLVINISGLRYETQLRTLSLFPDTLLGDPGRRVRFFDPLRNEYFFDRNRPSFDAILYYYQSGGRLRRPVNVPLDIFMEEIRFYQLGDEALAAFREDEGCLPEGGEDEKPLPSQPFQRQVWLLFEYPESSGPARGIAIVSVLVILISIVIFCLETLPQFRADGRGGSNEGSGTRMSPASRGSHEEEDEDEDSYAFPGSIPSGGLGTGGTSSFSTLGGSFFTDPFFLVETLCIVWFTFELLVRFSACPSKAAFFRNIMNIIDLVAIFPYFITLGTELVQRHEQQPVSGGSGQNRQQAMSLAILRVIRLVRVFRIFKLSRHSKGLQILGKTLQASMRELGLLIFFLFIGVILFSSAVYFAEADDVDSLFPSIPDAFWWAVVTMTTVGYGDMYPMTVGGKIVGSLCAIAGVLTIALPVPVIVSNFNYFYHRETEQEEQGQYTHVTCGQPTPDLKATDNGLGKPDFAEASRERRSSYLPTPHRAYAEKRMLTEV
T3 sequence (Q28204 whole entry): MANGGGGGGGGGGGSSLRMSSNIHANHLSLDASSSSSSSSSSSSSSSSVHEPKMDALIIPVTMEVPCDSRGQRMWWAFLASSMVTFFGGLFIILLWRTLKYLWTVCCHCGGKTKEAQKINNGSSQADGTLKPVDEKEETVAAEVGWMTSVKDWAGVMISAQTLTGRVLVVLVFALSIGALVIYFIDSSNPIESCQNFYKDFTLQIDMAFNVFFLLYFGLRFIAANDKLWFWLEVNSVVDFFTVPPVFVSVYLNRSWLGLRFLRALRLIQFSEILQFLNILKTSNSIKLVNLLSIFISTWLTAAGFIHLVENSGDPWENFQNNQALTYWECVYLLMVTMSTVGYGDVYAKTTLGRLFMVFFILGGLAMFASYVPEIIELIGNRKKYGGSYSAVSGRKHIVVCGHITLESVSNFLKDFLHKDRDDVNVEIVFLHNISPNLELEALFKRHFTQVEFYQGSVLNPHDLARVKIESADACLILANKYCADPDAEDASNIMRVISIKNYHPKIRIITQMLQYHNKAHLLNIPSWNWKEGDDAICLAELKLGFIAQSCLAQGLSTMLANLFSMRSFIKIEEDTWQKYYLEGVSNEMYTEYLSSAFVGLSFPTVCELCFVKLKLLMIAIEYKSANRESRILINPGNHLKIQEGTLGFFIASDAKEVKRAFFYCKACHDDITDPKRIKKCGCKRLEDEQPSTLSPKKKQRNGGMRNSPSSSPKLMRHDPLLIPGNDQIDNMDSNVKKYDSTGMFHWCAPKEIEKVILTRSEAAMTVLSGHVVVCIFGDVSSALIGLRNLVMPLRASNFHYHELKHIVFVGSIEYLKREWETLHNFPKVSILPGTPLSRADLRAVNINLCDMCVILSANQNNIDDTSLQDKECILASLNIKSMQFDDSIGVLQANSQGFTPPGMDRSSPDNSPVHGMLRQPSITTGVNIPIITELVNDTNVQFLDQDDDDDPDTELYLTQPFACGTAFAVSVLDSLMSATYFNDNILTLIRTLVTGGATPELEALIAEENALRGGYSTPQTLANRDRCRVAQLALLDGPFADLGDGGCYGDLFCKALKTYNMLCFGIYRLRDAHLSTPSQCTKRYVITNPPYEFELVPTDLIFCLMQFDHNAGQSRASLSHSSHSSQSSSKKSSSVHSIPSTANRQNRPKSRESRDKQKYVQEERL
T3 sequence (Q28067 whole entry partner): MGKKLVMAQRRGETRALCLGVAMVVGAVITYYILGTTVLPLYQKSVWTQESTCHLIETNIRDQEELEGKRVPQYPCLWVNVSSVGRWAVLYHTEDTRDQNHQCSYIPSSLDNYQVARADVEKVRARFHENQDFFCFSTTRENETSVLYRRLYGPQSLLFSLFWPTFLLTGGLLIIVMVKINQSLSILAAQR
T2 sequence (P15384 whole entry): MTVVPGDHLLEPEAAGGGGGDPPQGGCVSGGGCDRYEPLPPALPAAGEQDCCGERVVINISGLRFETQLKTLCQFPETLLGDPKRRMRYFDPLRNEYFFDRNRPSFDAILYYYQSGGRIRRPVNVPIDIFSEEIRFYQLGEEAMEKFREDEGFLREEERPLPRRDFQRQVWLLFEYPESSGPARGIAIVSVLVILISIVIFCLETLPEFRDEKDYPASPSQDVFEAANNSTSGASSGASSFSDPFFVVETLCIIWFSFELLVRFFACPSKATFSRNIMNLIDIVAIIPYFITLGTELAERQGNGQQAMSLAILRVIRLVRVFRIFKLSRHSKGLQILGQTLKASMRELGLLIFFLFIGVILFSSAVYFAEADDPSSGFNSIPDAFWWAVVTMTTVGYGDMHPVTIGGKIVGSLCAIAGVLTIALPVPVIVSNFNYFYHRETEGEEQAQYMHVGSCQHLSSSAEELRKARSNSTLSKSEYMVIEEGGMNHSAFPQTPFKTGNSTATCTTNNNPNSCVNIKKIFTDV

What is called IC50 is the concentration at which inhibition is half-maximal. Regarding charybdotoxin [ChTX], the IC50 with Kv 1.6 was more than 1000 nM.

For the substance “rMgTX: recombinant MgTX expressed in E. coli as T7 gene 9 fusion protein, cleaved with factor Xa; identical to native peptide (TIINVKCTSPKQCLPPCKAQFGQSAGAKCMNGKCKCYPH; ends and bridges not checked; cysteine pairing not given here; UniProt P40755 1-39, looked up)”, the “potency for inhibition of [125I]ChTX binding to brain membranes compared with native MgTX” value with Kv 1.3 is reported as “same potency as native MgTX”. For the same substance, the “effect on ChTX binding to the Maxi-K channel” value with Maxi-K channel is recorded as “did not affect”. Moreover, the “potency and selectivity as an inhibitor of Kv 1.3 compared with native peptide” value in test [1] was “same potency and selectivity”; in test [1] (listed as recombinant MgTX), “identical results”.
